Values quoted from earlier work, collected in paper PMC5580472.
Where two headings read alike, the source gives them in different places.

Legend:
[1] = molecular target: TNF (Homo sapiens) (UniProt P01375)
[2] = molecular target: TNF (Homo sapiens) (UniProt P01375); remark: listed apart in the source

TNF (Homo sapiens), sequence (P01375 77-233): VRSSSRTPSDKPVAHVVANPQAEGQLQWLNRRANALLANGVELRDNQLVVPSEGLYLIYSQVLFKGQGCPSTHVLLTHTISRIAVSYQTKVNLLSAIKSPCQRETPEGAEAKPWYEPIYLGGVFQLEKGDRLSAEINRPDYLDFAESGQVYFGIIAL
TNF receptor 2, sequence (P20333 23-461): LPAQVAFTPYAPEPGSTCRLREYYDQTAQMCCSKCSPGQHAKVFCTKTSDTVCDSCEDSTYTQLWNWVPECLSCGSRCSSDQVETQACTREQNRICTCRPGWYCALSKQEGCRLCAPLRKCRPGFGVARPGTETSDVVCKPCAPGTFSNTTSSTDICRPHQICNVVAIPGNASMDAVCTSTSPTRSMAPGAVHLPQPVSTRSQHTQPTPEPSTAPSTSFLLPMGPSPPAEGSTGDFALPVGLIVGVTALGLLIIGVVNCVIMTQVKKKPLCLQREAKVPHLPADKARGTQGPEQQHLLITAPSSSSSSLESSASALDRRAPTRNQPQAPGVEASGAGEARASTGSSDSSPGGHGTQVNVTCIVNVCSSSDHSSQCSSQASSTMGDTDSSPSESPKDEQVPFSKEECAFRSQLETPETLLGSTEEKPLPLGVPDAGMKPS
CrmB, sequence (P0DSV7 23-349): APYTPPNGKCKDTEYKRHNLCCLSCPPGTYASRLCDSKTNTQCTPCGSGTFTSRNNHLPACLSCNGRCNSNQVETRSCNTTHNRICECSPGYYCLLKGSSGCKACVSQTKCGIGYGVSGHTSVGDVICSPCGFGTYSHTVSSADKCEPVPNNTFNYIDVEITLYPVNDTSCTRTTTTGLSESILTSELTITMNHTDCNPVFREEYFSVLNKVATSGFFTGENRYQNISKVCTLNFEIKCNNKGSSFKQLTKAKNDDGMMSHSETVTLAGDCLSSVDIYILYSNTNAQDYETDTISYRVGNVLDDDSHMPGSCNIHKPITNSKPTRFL

Substance	Kd [1] [pM]	Kd [2] [pM]
CrmB (from UniProt P0DSV7)	280	–
TNF receptor 2 (from UniProt P20333)	–	300
